According to the Immune Epitope Database (IEDB):

What was measured:
[1] = target: HLA-B*15:02; assay: IEDB peptide-MHC binding, purified MHC/direct/fluorescence; filed as Kd, often an IC50 or EC50 that approximates it; ≥ and ≤ were set here for values at or beyond the usual limits of such assays; settings: source organism: Vibrio vulnificus CMCP6
[2] = target: HLA-A*68:02; assay: as above; settings: source organism: Vibrio vulnificus
[3] = target: HLA-B*27:05; assay: as above; settings: source organism: Vibrio vulnificus
[4] = target: HLA-A*03:01; assay: as above; settings: source organism: Vibrio vulnificus
[5] = target: HLA-B*07:02; assay: as above; settings: source organism: Vibrio vulnificus
[6] = target: HLA-B*58:01; assay: as above; settings: source organism: Vibrio vulnificus
[7] = target: HLA-B*57:01; assay: as above; settings: source organism: Vibrio vulnificus
[8] = target: HLA-B*46:01; assay: as above; settings: source organism: Vibrio vulnificus
[9] = target: HLA-B*15:17; assay: as above; settings: source organism: Vibrio vulnificus
[10] = target: HLA-B*48:01; assay: as above; settings: source organism: Vibrio vulnificus
[11] = target: HLA-B*15:09; assay: as above; settings: source organism: Vibrio vulnificus CMCP6
[12] = target: HLA-A*31:01; assay: as above; settings: source organism: Vibrio vulnificus
[13] = target: HLA-A*01:01; assay: as above; settings: source organism: Vibrio vulnificus
[14] = target: HLA-B*15:01; assay: as above; settings: source organism: Vibrio vulnificus
[15] = target: HLA-A*69:01; assay: as above; settings: source organism: Vibrio vulnificus
[16] = target: HLA-B*08:03; assay: as above; settings: source organism: Vibrio vulnificus CMCP6
[17] = target: HLA-A*02:01; assay: as above; settings: source organism: Vibrio vulnificus
[18] = target: HLA-A*11:01; assay: as above; settings: source organism: Vibrio vulnificus
[19] = target: HLA-A*26:01; assay: as above; settings: source organism: Vibrio vulnificus CMCP6
[20] = target: HLA-A*32:07; assay: IEDB peptide-MHC binding, purified MHC/competitive/fluorescence; filed as Kd, often an IC50 or EC50 that approximates it; ≥ and ≤ were set here for values at or beyond the usual limits of such assays; settings: source organism: Vibrio vulnificus YJ016
[21] = target: HLA-B*15:42; assay: as above; settings: source organism: Vibrio vulnificus YJ016
[22] = target: HLA-B*40:13; assay: as above; settings: source organism: Vibrio vulnificus YJ016
[23] = target: HLA-B*27:20; assay: as above; settings: source organism: Vibrio vulnificus YJ016
[24] = target: HLA-B*83:01; assay: as above; settings: source organism: Vibrio vulnificus YJ016
[25] = target: HLA-B*45:06; assay: as above; settings: source organism: Vibrio vulnificus YJ016
[26] = target: HLA-A*02:03; assay: as above; settings: source organism: Vibrio vulnificus YJ016
[27] = target: HLA-B*39:01; assay: as above; settings: source organism: Vibrio vulnificus YJ016
[28] = target: HLA-B*08:01; assay: as above; settings: source organism: Vibrio vulnificus YJ016
[29] = target: HLA-A*30:01; assay: as above; settings: source organism: Vibrio vulnificus YJ016

Sequence: YQRALHTSI
- Kd [1]: 306 nM
- Kd [2]: ≥ 20000 nM
- Kd [3]: 2050 nM
- Kd [4]: ≥ 20000 nM
- Kd [5]: 7060 nM
- Kd [6]: ≥ 20000 nM
- Kd [7]: ≥ 20000 nM
- Kd [8]: ≥ 20000 nM
- Kd [9]: 130 nM
- Kd [10]: 58.6 nM
- Kd [11]: ≥ 20000 nM
- Kd [12]: ≥ 20000 nM
- Kd [13]: ≥ 20000 nM
- Kd [14]: 96.2 nM
- Kd [15]: ≥ 20000 nM
- Kd [16]: 55 nM
- Kd [17]: ≥ 20000 nM
- Kd [18]: ≥ 20000 nM
- Kd [19]: ≥ 20000 nM
- Kd [20]: 454 nM
- Kd [21]: ≥ 20000 nM
- Kd [22]: 60.8 nM
- Kd [23]: 0.2 nM
- Kd [24]: ≥ 5000 nM
- Kd [25]: ≥ 5000 nM
- Kd [26]: 2.1 nM
- Kd [27]: 395 nM
- Kd [28]: 292 nM
- Kd [29]: 1120 nM
